Assay results published in publication PMC7060200, “Selective Binding of HSC70 and its Co-Chaperones to Structural Hotspots on CFTR” (Scientific Reports, 2020).

Biological target: T1, HSC70 (Homo sapiens, UniProt P11142)
T1 construct: made in house
Experiment: ELISA binding of HSC70 to immobilized CFTR NBD1 and competition by soluble peptides
Details: immobilized NBD1 incubated at 30 °C, direct comparison with immobilized 1097-L; n = 3, p < 0.01
Experimental: HSC70, DJA1 and DJA2 were purified as His-tagged proteins, as described. HSC70 was also amplified by PCR with an N-terminal FLAG tag, inserted into pPROEXHTa (Invitrogen) and purified as described. HSC70 was stored in 100 mM KOAc, 20 mM HEPES-KOH pH 7.5, 5 mM MgOAC2 (buffer G), DJA1 and DJA2 in 500 mM NaCl, 20 mM HEPES-KOH pH 7.5, 5 mM MgOAC2 (buffer H). Avi-tagged CFTR NBD1 was purified as described.
For NBD1 binding, 100 nM of strep-tagged NBD1 in 100 µl of 150 mM NaCl, 50 mM Na2HPO4 pH 7.5, 1 mM ATP, and 40 µM DTT (buffer N), was bound to streptavidin plates for 1 hour at 4 °C with agitation. Plates were washed with PBST and incubated in buffer N at 30 °C in a water bath for 5 min. Then, plates were blocked in PBST containing 0.5% BSA, followed by the addition of HSC70 binding reactions, and detection as above.

T1 sequence (P11142 whole entry): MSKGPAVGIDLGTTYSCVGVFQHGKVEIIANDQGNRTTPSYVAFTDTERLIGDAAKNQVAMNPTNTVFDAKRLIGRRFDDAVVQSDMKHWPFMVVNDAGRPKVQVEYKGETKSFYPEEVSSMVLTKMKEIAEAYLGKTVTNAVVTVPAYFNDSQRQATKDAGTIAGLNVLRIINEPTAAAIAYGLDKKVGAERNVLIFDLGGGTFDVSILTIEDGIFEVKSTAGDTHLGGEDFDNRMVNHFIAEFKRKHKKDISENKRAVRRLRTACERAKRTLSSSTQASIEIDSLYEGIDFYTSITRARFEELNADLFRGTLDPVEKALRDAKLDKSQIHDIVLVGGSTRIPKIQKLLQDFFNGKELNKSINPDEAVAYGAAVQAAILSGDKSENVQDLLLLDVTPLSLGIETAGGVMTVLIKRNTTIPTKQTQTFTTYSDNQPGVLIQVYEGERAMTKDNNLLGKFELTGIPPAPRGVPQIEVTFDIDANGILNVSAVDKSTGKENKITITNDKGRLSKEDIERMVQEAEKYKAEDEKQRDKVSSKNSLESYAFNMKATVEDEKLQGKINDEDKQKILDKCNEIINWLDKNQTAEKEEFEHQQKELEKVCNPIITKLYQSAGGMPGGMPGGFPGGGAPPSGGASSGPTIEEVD

B1: NBD1: Avi-tagged CFTR NBD1, purified and immobilized on streptavidin plates (protein)
chain: TTEVVMENVTAFWEEGFGELFEKAKQNNNNRKTSNGDDSLFFSNFSLLGTPVLKDINFKIERGQLLAVAGSTGAGKTSLLMVIMGELEPSEGKIKHSGRISFCSQFSWIMPGTIKENIIFGVSYDEYRYRSVIKACQLEEDISKFAEKDNIVLGEGGITLSGGQRARISLARAVYKDADLYLLDSPFGYLDVLTEKEIFESCVCKLMANKTRILVTSKMEHLKKADKILILHEGSSYFYGTFSELQNLQPDFSSKLMGCDSFDQFSAERRNSILTETLHRFSLEGDAPVS
modifications: left off: Avi-tag, end not stated, kept
notes: Avi-tagged CFTR NBD1, purified and immobilized on streptavidin plates
In the case of B1, the “HSC70 binding to NBD1 relative to that observed for 1097-L” value is reported as 73 ± 3%.
